From paper PMC11533527, “A yeast two-hybrid system to obtain triple-helical ligands from combinatorial random peptide libraries” (The Journal of Biological Chemistry, 2024)

Target: the molecule itself
Assay: circular dichroism with thermal melting; peptides in PBS, heated at 95 °C, annealed at 4 °C overnight; [θ]225 followed from 4 to 85 °C; chains of one peptide forming a triple helix

Sequence of synthetic triple-helical peptide pepα1(I)930-938: H-Tyr-(Pro-Hyp-Gly)4-Pro-Lys-Gly-His-Arg-Gly-Phe-Ser-Gly-Leu-Hyp-Gly-(Pro-Hyp-Gly)4-NH2 (chain): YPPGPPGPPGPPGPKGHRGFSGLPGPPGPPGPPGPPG

Protein | binding result
YPPGPPGPPGPPGPRGRRGLHGLPGPPGPPGPPGPPG (HELM PEPTIDE1{Y.P.[Hyp].G.P.[Hyp].G.P.[Hyp].G.P.[Hyp].G.P.R.G.R.R.G.L.H.G.L.[Hyp].G.P.[Hyp].G.P.[Hyp].G.P.[Hyp].G.P.[Hyp].G.[am]}$$$$V2.0; N-terminus assumed; SMILES CC(C)C[C@H](NC(=O)CNC(=O)[C@H](CCCNC(=N)N)NC(=O)[C@H](CCCNC(=N)N)NC(=O)CNC(=O)[C@H](CCCNC(=N)N)NC(=O)[C@@H]1CCCN1C(=O)CNC(=O)[C@@H]1C[C@@H](O)CN1C(=O)[C@@H]1CCCN1C(=O)CNC(=O)[C@@H]1C[C@@H](O)CN1C(=O)[C@@H]1CCCN1C(=O)CNC(=O)[C@@H]1C[C@@H](O)CN1C(=O)[C@@H]1CCCN1C(=O)CNC(=O)[C@@H]1C[C@@H](O)CN1C(=O)[C@@H]1CCCN1C(=O)[C@@H](N)Cc1ccc(O)cc1)C(=O)N[C@@H](Cc1c[nH]cn1)C(=O)NCC(=O)N[C@@H](CC(C)C)C(=O)N1C[C@H](O)C[C@H]1C(=O)NCC(=O)N1CCC[C@H]1C(=O)N1C[C@H](O)C[C@H]1C(=O)NCC(=O)N1CCC[C@H]1C(=O)N1C[C@H](O)C[C@H]1C(=O)NCC(=O)N1CCC[C@H]1C(=O)N1C[C@H](O)C[C@H]1C(=O)NCC(=O)N1CCC[C@H]1C(=O)N1C[C@H](O)C[C@H]1C(=O)NCC(N)=O, guest made of the residue most frequent at each position in the selection; Triple helix by CD; annealed before use; source: synthetic peptide (Fmoc solid phase, RP-HPLC purified)) [synthetic triple-helical peptide pepfreq] | binds
YPPGPPGPPGPPGPRGPRGFTGFPGPPGPPGPPGPPG (HELM PEPTIDE1{Y.P.[Hyp].G.P.[Hyp].G.P.[Hyp].G.P.[Hyp].G.P.R.G.P.R.G.F.T.G.F.[Hyp].G.P.[Hyp].G.P.[Hyp].G.P.[Hyp].G.P.[Hyp].G.[am]}$$$$V2.0; N-terminus assumed; SMILES C[C@@H](O)[C@H](NC(=O)[C@H](Cc1ccccc1)NC(=O)CNC(=O)[C@H](CCCNC(=N)N)NC(=O)[C@@H]1CCCN1C(=O)CNC(=O)[C@H](CCCNC(=N)N)NC(=O)[C@@H]1CCCN1C(=O)CNC(=O)[C@@H]1C[C@@H](O)CN1C(=O)[C@@H]1CCCN1C(=O)CNC(=O)[C@@H]1C[C@@H](O)CN1C(=O)[C@@H]1CCCN1C(=O)CNC(=O)[C@@H]1C[C@@H](O)CN1C(=O)[C@@H]1CCCN1C(=O)CNC(=O)[C@@H]1C[C@@H](O)CN1C(=O)[C@@H]1CCCN1C(=O)[C@@H](N)Cc1ccc(O)cc1)C(=O)NCC(=O)N[C@@H](Cc1ccccc1)C(=O)N1C[C@H](O)C[C@H]1C(=O)NCC(=O)N1CCC[C@H]1C(=O)N1C[C@H](O)C[C@H]1C(=O)NCC(=O)N1CCC[C@H]1C(=O)N1C[C@H](O)C[C@H]1C(=O)NCC(=O)N1CCC[C@H]1C(=O)N1C[C@H](O)C[C@H]1C(=O)NCC(=O)N1CCC[C@H]1C(=O)N1C[C@H](O)C[C@H]1C(=O)NCC(N)=O, Triple helix by CD; annealed before use; source: synthetic peptide (Fmoc solid phase, RP-HPLC purified)) [synthetic triple-helical peptide pep10] | binds
YPPGPPGPPGPPGPNGRRGFMGMPGPPGPPGPPGPPG (HELM PEPTIDE1{Y.P.[Hyp].G.P.[Hyp].G.P.[Hyp].G.P.[Hyp].G.P.N.G.R.R.G.F.M.G.M.[Hyp].G.P.[Hyp].G.P.[Hyp].G.P.[Hyp].G.P.[Hyp].G.[am]}$$$$V2.0; N-terminus assumed; SMILES CSCC[C@H](NC(=O)[C@H](Cc1ccccc1)NC(=O)CNC(=O)[C@H](CCCNC(=N)N)NC(=O)[C@H](CCCNC(=N)N)NC(=O)CNC(=O)[C@H](CC(N)=O)NC(=O)[C@@H]1CCCN1C(=O)CNC(=O)[C@@H]1C[C@@H](O)CN1C(=O)[C@@H]1CCCN1C(=O)CNC(=O)[C@@H]1C[C@@H](O)CN1C(=O)[C@@H]1CCCN1C(=O)CNC(=O)[C@@H]1C[C@@H](O)CN1C(=O)[C@@H]1CCCN1C(=O)CNC(=O)[C@@H]1C[C@@H](O)CN1C(=O)[C@@H]1CCCN1C(=O)[C@@H](N)Cc1ccc(O)cc1)C(=O)NCC(=O)N[C@@H](CCSC)C(=O)N1C[C@H](O)C[C@H]1C(=O)NCC(=O)N1CCC[C@H]1C(=O)N1C[C@H](O)C[C@H]1C(=O)NCC(=O)N1CCC[C@H]1C(=O)N1C[C@H](O)C[C@H]1C(=O)NCC(=O)N1CCC[C@H]1C(=O)N1C[C@H](O)C[C@H]1C(=O)NCC(=O)N1CCC[C@H]1C(=O)N1C[C@H](O)C[C@H]1C(=O)NCC(N)=O, Triple helix by CD; annealed before use; source: synthetic peptide (Fmoc solid phase, RP-HPLC purified)) [synthetic triple-helical peptide pep6] | binds
YPPGPPGPPGPPGPRGHRGFLGLPGPPGPPGPPGPPG (HELM PEPTIDE1{Y.P.[Hyp].G.P.[Hyp].G.P.[Hyp].G.P.[Hyp].G.P.R.G.H.R.G.F.L.G.L.[Hyp].G.P.[Hyp].G.P.[Hyp].G.P.[Hyp].G.P.[Hyp].G.[am]}$$$$V2.0; N-terminus assumed; SMILES CC(C)C[C@H](NC(=O)[C@H](Cc1ccccc1)NC(=O)CNC(=O)[C@H](CCCNC(=N)N)NC(=O)[C@H](Cc1c[nH]cn1)NC(=O)CNC(=O)[C@H](CCCNC(=N)N)NC(=O)[C@@H]1CCCN1C(=O)CNC(=O)[C@@H]1C[C@@H](O)CN1C(=O)[C@@H]1CCCN1C(=O)CNC(=O)[C@@H]1C[C@@H](O)CN1C(=O)[C@@H]1CCCN1C(=O)CNC(=O)[C@@H]1C[C@@H](O)CN1C(=O)[C@@H]1CCCN1C(=O)CNC(=O)[C@@H]1C[C@@H](O)CN1C(=O)[C@@H]1CCCN1C(=O)[C@@H](N)Cc1ccc(O)cc1)C(=O)NCC(=O)N[C@@H](CC(C)C)C(=O)N1C[C@H](O)C[C@H]1C(=O)NCC(=O)N1CCC[C@H]1C(=O)N1C[C@H](O)C[C@H]1C(=O)NCC(=O)N1CCC[C@H]1C(=O)N1C[C@H](O)C[C@H]1C(=O)NCC(=O)N1CCC[C@H]1C(=O)N1C[C@H](O)C[C@H]1C(=O)NCC(=O)N1CCC[C@H]1C(=O)N1C[C@H](O)C[C@H]1C(=O)NCC(N)=O, Triple helix by CD; annealed before use; source: synthetic peptide (Fmoc solid phase, RP-HPLC purified)) [synthetic triple-helical peptide pep3] | binds
YPPGPPGPPGPPGPVGRRGLSGLPGPPGPPGPPGPPG (HELM PEPTIDE1{Y.P.[Hyp].G.P.[Hyp].G.P.[Hyp].G.P.[Hyp].G.P.V.G.R.R.G.L.S.G.L.[Hyp].G.P.[Hyp].G.P.[Hyp].G.P.[Hyp].G.P.[Hyp].G.[am]}$$$$V2.0; N-terminus assumed; SMILES CC(C)C[C@H](NC(=O)CNC(=O)[C@H](CCCNC(=N)N)NC(=O)[C@H](CCCNC(=N)N)NC(=O)CNC(=O)[C@@H](NC(=O)[C@@H]1CCCN1C(=O)CNC(=O)[C@@H]1C[C@@H](O)CN1C(=O)[C@@H]1CCCN1C(=O)CNC(=O)[C@@H]1C[C@@H](O)CN1C(=O)[C@@H]1CCCN1C(=O)CNC(=O)[C@@H]1C[C@@H](O)CN1C(=O)[C@@H]1CCCN1C(=O)CNC(=O)[C@@H]1C[C@@H](O)CN1C(=O)[C@@H]1CCCN1C(=O)[C@@H](N)Cc1ccc(O)cc1)C(C)C)C(=O)N[C@@H](CO)C(=O)NCC(=O)N[C@@H](CC(C)C)C(=O)N1C[C@H](O)C[C@H]1C(=O)NCC(=O)N1CCC[C@H]1C(=O)N1C[C@H](O)C[C@H]1C(=O)NCC(=O)N1CCC[C@H]1C(=O)N1C[C@H](O)C[C@H]1C(=O)NCC(=O)N1CCC[C@H]1C(=O)N1C[C@H](O)C[C@H]1C(=O)NCC(=O)N1CCC[C@H]1C(=O)N1C[C@H](O)C[C@H]1C(=O)NCC(N)=O, Triple helix by CD; annealed before use; source: synthetic peptide (Fmoc solid phase, RP-HPLC purified)) [synthetic triple-helical peptide pep11] | binds
synthetic triple-helical peptide pepα1(I)930-938: H-Tyr-(Pro-Hyp-Gly)4-Pro-Lys-Gly-His-Arg-Gly-Phe-Ser-Gly-Leu-Hyp-Gly-(Pro-Hyp-Gly)4-NH2 (4-hydroxyproline (Hyp, written P in letters) at positions 3, 6, 9, 12, 24, 27, 30, 33, 36 of the chain (counted from the printed formula); C-terminal amide, Tyr-(Pro-Hyp-Gly)4-Pro host; Hyp-Gly-(Pro-Hyp-Gly)4 host; Triple helix by CD; annealed before use; source: synthetic peptide (Fmoc solid phase, RP-HPLC purified)) not shown | binds
YPPGPPGPPGPPGPRGPRGLTGFPGPPGPPGPPGPPG (HELM PEPTIDE1{Y.P.[Hyp].G.P.[Hyp].G.P.[Hyp].G.P.[Hyp].G.P.R.G.P.R.G.L.T.G.F.[Hyp].G.P.[Hyp].G.P.[Hyp].G.P.[Hyp].G.P.[Hyp].G.[am]}$$$$V2.0; N-terminus assumed; SMILES CC(C)C[C@H](NC(=O)CNC(=O)[C@H](CCCNC(=N)N)NC(=O)[C@@H]1CCCN1C(=O)CNC(=O)[C@H](CCCNC(=N)N)NC(=O)[C@@H]1CCCN1C(=O)CNC(=O)[C@@H]1C[C@@H](O)CN1C(=O)[C@@H]1CCCN1C(=O)CNC(=O)[C@@H]1C[C@@H](O)CN1C(=O)[C@@H]1CCCN1C(=O)CNC(=O)[C@@H]1C[C@@H](O)CN1C(=O)[C@@H]1CCCN1C(=O)CNC(=O)[C@@H]1C[C@@H](O)CN1C(=O)[C@@H]1CCCN1C(=O)[C@@H](N)Cc1ccc(O)cc1)C(=O)N[C@H](C(=O)NCC(=O)N[C@@H](Cc1ccccc1)C(=O)N1C[C@H](O)C[C@H]1C(=O)NCC(=O)N1CCC[C@H]1C(=O)N1C[C@H](O)C[C@H]1C(=O)NCC(=O)N1CCC[C@H]1C(=O)N1C[C@H](O)C[C@H]1C(=O)NCC(=O)N1CCC[C@H]1C(=O)N1C[C@H](O)C[C@H]1C(=O)NCC(=O)N1CCC[C@H]1C(=O)N1C[C@H](O)C[C@H]1C(=O)NCC(N)=O)[C@@H](C)O, Triple helix by CD; annealed before use; source: synthetic peptide (Fmoc solid phase, RP-HPLC purified)) [synthetic triple-helical peptide pep5] | binds
YPPGPPGPPGPPGPKGRRGFHGLPGPPGPPGPPGPPG (HELM PEPTIDE1{Y.P.[Hyp].G.P.[Hyp].G.P.[Hyp].G.P.[Hyp].G.P.K.G.R.R.G.F.H.G.L.[Hyp].G.P.[Hyp].G.P.[Hyp].G.P.[Hyp].G.P.[Hyp].G.[am]}$$$$V2.0; N-terminus assumed; SMILES CC(C)C[C@H](NC(=O)CNC(=O)[C@H](Cc1c[nH]cn1)NC(=O)[C@H](Cc1ccccc1)NC(=O)CNC(=O)[C@H](CCCNC(=N)N)NC(=O)[C@H](CCCNC(=N)N)NC(=O)CNC(=O)[C@H](CCCCN)NC(=O)[C@@H]1CCCN1C(=O)CNC(=O)[C@@H]1C[C@@H](O)CN1C(=O)[C@@H]1CCCN1C(=O)CNC(=O)[C@@H]1C[C@@H](O)CN1C(=O)[C@@H]1CCCN1C(=O)CNC(=O)[C@@H]1C[C@@H](O)CN1C(=O)[C@@H]1CCCN1C(=O)CNC(=O)[C@@H]1C[C@@H](O)CN1C(=O)[C@@H]1CCCN1C(=O)[C@@H](N)Cc1ccc(O)cc1)C(=O)N1C[C@H](O)C[C@H]1C(=O)NCC(=O)N1CCC[C@H]1C(=O)N1C[C@H](O)C[C@H]1C(=O)NCC(=O)N1CCC[C@H]1C(=O)N1C[C@H](O)C[C@H]1C(=O)NCC(=O)N1CCC[C@H]1C(=O)N1C[C@H](O)C[C@H]1C(=O)NCC(=O)N1CCC[C@H]1C(=O)N1C[C@H](O)C[C@H]1C(=O)NCC(N)=O, Triple helix by CD; annealed before use; source: synthetic peptide (Fmoc solid phase, RP-HPLC purified)) [synthetic triple-helical peptide pep7] | binds
